In assay [1] the target is … (SEQ ID NO: 1)-HLA-A*02 complex (human). Description: SPR (BIAcore) or BLI (Octet) per Example 3, immobilised biotinylated pHLA, 25 C.
Assay [2] has the same target. Description: cell-based or functional assay.

B1: ImmTAC molecule a28b57 (TCR-anti-CD3 fusion) (TCR, part only; not given: anti-CD3 scFv, linker, constant regions, not shown: a dimerising Fc or GST)
TCR alpha, part: GDAKTTQPNSMESNEEEPVHLPCNHSTISGTDYIHWYRQLPSQGPEYVIHGLTSNVNNRMASLAIAEDRKSSTLILHRATLRDAAVYYCILILGHSRAGNYIATFGKGTKLSVIP
TCR beta, part: DGGITQSPKYLFRKEGQNVTLSCEQNLNHDAMYWYRQDPGQGLRLIYYSQIMGDEQKGDIAEGYSVSREKKESFPLTVTSAQKNPTAFYLCASSWWTSGASPISFGPGTRLTVT
In the case of B1, in assay [1], the Kd is 0.083 nM and the t1/2 amounted to 8.3 h. Moreover, the EC50 (mel624), IFN-γ ELISPOT, T cell activation in assay [2] worked out at 0.0134 nM.

B2: ImmTAC molecule a79b63 (TCR-anti-CD3 fusion) (TCR, part only; not given: anti-CD3 scFv, linker, constant regions, not shown: a dimerising Fc or GST)
TCR alpha, part: GDAKTTQPNSMESNEEEPVHLPCNHSTISGTDYIHWYRQLPSQGPEYVIHGLTSNVNNRMASLAIAEDRKSSTLILHRATLRDAAVYYCILILGHSRLGNYIATFGKGTKLSVIP
TCR beta, part: DGGITQSPKYLFRKEGQNVTLSCEQNLNHDAMYWYRQDPGQGLRLIYYSQIVGDEQKGDIAEGYSVSREKKESFPLTVTSAQKNPTAFYLCASSWWTGGSAPIRFGPGTRLTVT
In assay [1], B2 yielded a Kd of 0.079 nM and a t1/2 of 10.8 h. This molecule also returned an EC50 (mel624), IFN-γ ELISPOT, T cell activation in assay [2] of 0.0229 nM.

B3: ImmTAC molecule a79b77 (TCR-anti-CD3 fusion) (TCR, part only; not given: anti-CD3 scFv, linker, constant regions, not shown: a dimerising Fc or GST)
TCR alpha, part: GDAKTTQPNSMESNEEEPVHLPCNHSTISGTDYIHWYRQLPSQGPEYVIHGLTSNVNNRMASLAIAEDRKSSTLILHRATLRDAAVYYCILILGHSRLGNYIATFGKGTKLSVIP
TCR beta, part: DGGITQSPKYLFRKEGQNVTLSCEQNLNHDAMYWYRQDPGQGLRLIYYSQIMGDEQKGDIAEGYSVSREKKESFPLTVTSAQKNPTAFYLCASSWWTGGAAPIRFGPGTRLTVT
Consider B3, for which, in assay [1], the Kd is 0.0779 nM and the t1/2 worked out at 8.6 h. In assay [2], this molecule yielded an EC50 (mel624), IFN-γ ELISPOT, T cell activation of 0.0138 nM.

B4: ImmTAC molecule a79b69 (TCR-anti-CD3 fusion) (TCR, part only; not given: anti-CD3 scFv, linker, constant regions, not shown: a dimerising Fc or GST)
TCR alpha, part: GDAKTTQPNSMESNEEEPVHLPCNHSTISGTDYIHWYRQLPSQGPEYVIHGLTSNVNNRMASLAIAEDRKSSTLILHRATLRDAAVYYCILILGHSRLGNYIATFGKGTKLSVIP
TCR beta, part: DGGITQSPKYLFRKEGQNVTLSCEQNLNHDAMYWYRQDPGQGLRLIYYSQIMGDEQKGDIAEGYSVSREKKESFPLTVTSAQKNPTAFYLCASSWWTGGSAEIRFGPGTRLTVT
With B4, in assay [1], the dissociation constant (Kd) came to 0.052 nM and the t1/2 came out at 20.4 h. In assay [2], this molecule displayed an EC50 (mel624), IFN-γ ELISPOT, T cell activation of 0.0398 nM.

B5: ImmTAC molecule a109b46 (TCR-anti-CD3 fusion) (TCR, part only; not given: anti-CD3 scFv, linker, constant regions, not shown: a dimerising Fc or GST)
TCR alpha, part: GDAKTTQPNSMESNEEEPVHLPCNHSTISGTDYIHWYRQLPSQGPEYVIHGLTSNVNNRMASLAIAEDRKSSTLILHRATLRDAAVYYCILILGHSRLGNYQATFGKGTKLSVIP
TCR beta, part: DGGITQSPKYLFRKEGQNVTLSCEQNLNHDAMYWYRQDPGQGLRLIYYSQIMGDEQKGDIAEGYSVSREKKESFPLTVTSAQKNPTAFYLCASSWWTGGSAPIRFGPGTRLTVT
Turning to B5, in assay [1], the Kd amounted to 0.17 nM and the t1/2 is 7.31 h. The molecule also showed an EC50 (mel624), IFN-γ ELISPOT, T cell activation in assay [2] of 0.0601 nM.

B6: ImmTAC molecule a79b76 (TCR-anti-CD3 fusion) (TCR, part only; not given: anti-CD3 scFv, linker, constant regions, not shown: a dimerising Fc or GST)
TCR alpha, part: GDAKTTQPNSMESNEEEPVHLPCNHSTISGTDYIHWYRQLPSQGPEYVIHGLTSNVNNRMASLAIAEDRKSSTLILHRATLRDAAVYYCILILGHSRLGNYIATFGKGTKLSVIP
TCR beta, part: DGGITQSPKYLFRKEGQNVTLSCEQNLNHDAMYWYRQDPGQGLRLIYYSQIMGDEQKGDIAEGYSVSREKKESFPLTVTSAQKNPTAFYLCASSWWTGGSSPIRFGPGTRLTVT
On to B6, for which, in assay [1], the Kd was found to be 0.0118 nM and the t1/2 was found to be 58.3 h. The molecule also had an EC50 (mel624), IFN-γ ELISPOT, T cell activation in assay [2] of 0.0172 nM.

B7: ImmTAC molecule a28b60 (TCR-anti-CD3 fusion) (TCR, part only; not given: anti-CD3 scFv, linker, constant regions, not shown: a dimerising Fc or GST)
TCR alpha, part: GDAKTTQPNSMESNEEEPVHLPCNHSTISGTDYIHWYRQLPSQGPEYVIHGLTSNVNNRMASLAIAEDRKSSTLILHRATLRDAAVYYCILILGHSRAGNYIATFGKGTKLSVIP
TCR beta, part: DGGITQSPKYLFRKEGQNVTLSCEQNLNHDAMYWYRQDPGQGLRLIYYSQIMGDEQKGDIAEGYSVSREKKESFPLTVTSAQKNPTAFYLCASSWWTGGASEISFGPGTRLTVT
In assay [1], B7 came in with a Kd of 0.261 nM and a t1/2 of 2.8 h. This molecule also registered an EC50 (mel624), IFN-γ ELISPOT, T cell activation in assay [2] of 0.0317 nM.

B8: ImmTAC molecule a79b73 (TCR-anti-CD3 fusion) (TCR, part only; not given: anti-CD3 scFv, linker, constant regions, not shown: a dimerising Fc or GST)
TCR alpha, part: GDAKTTQPNSMESNEEEPVHLPCNHSTISGTDYIHWYRQLPSQGPEYVIHGLTSNVNNRMASLAIAEDRKSSTLILHRATLRDAAVYYCILILGHSRLGNYIATFGKGTKLSVIP
TCR beta, part: DGGITQSPKYLFRKEGQNVTLSCEQNLNHDAMYWYRQDPGQGLRLIYYSQIMGDEQKGDIAEGYSVSREKKESFPLTVTSAQKNPTAFYLCASSWWTGGAAPISFGPGTRLTVT
In assay [1], B8 yielded a Kd of 0.132 nM and a t1/2 of 4.6 h. In assay [2], the EC50 (mel624), IFN-γ ELISPOT, T cell activation amounted to 0.0231 nM.

B9: ImmTAC molecule a79b66 (TCR-anti-CD3 fusion) (TCR, part only; not given: anti-CD3 scFv, linker, constant regions, not shown: a dimerising Fc or GST)
TCR alpha, part: GDAKTTQPNSMESNEEEPVHLPCNHSTISGTDYIHWYRQLPSQGPEYVIHGLTSNVNNRMASLAIAEDRKSSTLILHRATLRDAAVYYCILILGHSRLGNYIATFGKGTKLSVIP
TCR beta, part: DGGITQSPKYLFRKEGQNVTLSCEQNLNHDAMYWYRQDPGQGLRLIYYSQIMGDEQKGDIAEGYSVSREKKESFPLTVTSAQKNPTAFYLCASSPWTGGSAPIRFGPGTRLTVT
With B9, in assay [1], the dissociation constant Kd came out at 0.089 nM and the t1/2 was 9.16 h. This molecule also registered an EC50 (mel624), IFN-γ ELISPOT, T cell activation in assay [2] of 0.0167 nM.
